Columns and labels:
[1] = molecular target: T1, DRB1*0101 (DR1) (Homo sapiens, UniProt P01903+P01911, A100R/D57E/F55L/F60I/F76Y/I96L/L162R/M171V/P40L/Q125E/R42F/V115G/Y59C); experiment: HLA class II peptide binding assay; details: for DR1 binding data: Table XIXb, Malaria Super Motif Peptides With Binding Data; for DR1 binding information: unit not given
T1 construct: endogenous in cells; host or cells: LG2

[2] = molecular target: T2, DRB1*0701 (DR7) (Homo sapiens, UniProt P01903+P01911, A100R/A102G/A103Q/D57E/D86V/E43K/F76Y/K127E/L162R/M171V/P40G/Q125H/Q99D/R33Q/R42Y/R54Q/S133A/S66F/T210M/V115G/Y107V/Y59L/Y89S); experiment: biochemical; assay type: binding
T2 construct: endogenous in cells; host or cells: Pitout

[3] = molecular target: T3, HLA-A*0301 (Homo sapiens, UniProt P04439); experiment: HLA class I peptide binding assay; details: for A*0301 (binding information): Table XVI, Malaria A3 motif peptides
T3 construct: endogenous in cells; host or cells: GM3107

[4] = molecular target: HLA-A*1101 (Homo sapiens, UniProt P04439, A114D/D185E/E176A/F33Y/L180Q/S129P/T187R); experiment: HLA class I peptide binding assay; details: Table XVII
[5] = molecular target: T4, DRB1*1201 (DR5w12) (Homo sapiens, UniProt P01903+P01911, A100R/A169T/D57E/D86V/F55L/H45Y/K41T/L162R/M171V/P40S/Q125H/Q178H/Q39Y/Q99D/R42G/S66L/T262R/V114A/V67L/W38E/Y59H/Y61H/Y89S); experiment: HLA class II peptide binding assay; details: for DR5w12 binding data: Table XIXb; for DR5w12 binding information: unit not given
T4 construct: endogenous in cells; host or cells: Herluf

[6] = molecular target: T5, DRB5*0101 (DR2w2β2) (Homo sapiens, UniProt P01903+Q30154); assay type: binding
T5 construct: expressed in transfected cells; host or cells: L416.3 (fibroblasts) or GM3107

[7] = molecular target: T6, DRB1*0802 (DR8w2) (Homo sapiens, UniProt P01903+P01911, A100R/A103L/A169T/F76Y/H45Y/I96F/K41T/L162R/M171V/P40S/Q125H/Q178H/Q39Y/Q99D/R218S/R42G/S66Y/V115G/W38E); experiment: biochemical; assay type: binding
T6 construct: endogenous in cells; host or cells: OLL

[8] = molecular target: T7, DRB1*0405 (DR4w15) (Homo sapiens, UniProt P01903+P01911, A100R/A169T/D86S/F76Y/I96L/K127E/L162R/M171V/N62H/P40V/Q125Y/R42H/S133A/S149N/S66Y/V115G/V209L/W38E); experiment: HLA class II peptide binding assay; details: for DR4w15 binding data: Table XIXb; for DR4w15 binding information: unit not given
T7 construct: endogenous in cells; host or cells: KT3

[9] = molecular target: T8, DRB1*1101 (DR5w11) (Homo sapiens, UniProt P01903+P01911, A100R/A169T/A87E/I96F/K41T/L162R/M171V/P40S/Q125H/Q178H/Q39Y/Q99D/R42S/S66Y/T262R/V115G/W38E); experiment: biochemical; assay type: binding
T8 construct: endogenous in cells; host or cells: Sweig

[10] = molecular target: T9, DRB1*0401 (DR4w4) (Homo sapiens, UniProt P01903+P01911, A100K/A169T/F76Y/I96L/K127E/L162R/M171V/N62H/P40V/Q125Y/R42H/S133A/S149N/S66Y/V115G/V209L/W38E); experiment: HLA class II peptide binding assay; details: for DR4w4 binding data: Table XIXb; for DR4w4 binding information: unit not given
T9 construct: endogenous in cells; host or cells: Preiss

[11] = molecular target: T10, DRB1*0301 (DR3) (Homo sapiens, UniProt P01903+P01911, A100K/A102G/A103R/A169T/F55Y/I96L/K41T/L162R/M171V/P40S/Q125H/Q178H/Q39Y/R42S/S66N/T106N/T262R/W38E/Y61H); experiment: HLA class II peptide binding assay (pH 4.5); details: unit not given
T10 construct: endogenous in cells; host or cells: MAT

[12] = molecular target: T11, DRB4*0101 (DRw53) (Homo sapiens, UniProt P01903+P13762, G164S); experiment: HLA class II peptide binding assay (pH 5.0); details: for DRw53 binding data: Table XIXb
T11 construct: expressed in transfected cells; host or cells: L257.6 (fibroblasts)

[13] = Malaria A11 motif peptides, HLA-A*1101 binding value, unit not given
[14] = binding value to HLA-A*0301, unit not given
[15] = malaria A11 motif peptides, binding value unit not given
[16] = DR3a motif peptides, exemplary 15-mer containing the core sequence

T8 sequence (P01903 26-254, other chains not shown): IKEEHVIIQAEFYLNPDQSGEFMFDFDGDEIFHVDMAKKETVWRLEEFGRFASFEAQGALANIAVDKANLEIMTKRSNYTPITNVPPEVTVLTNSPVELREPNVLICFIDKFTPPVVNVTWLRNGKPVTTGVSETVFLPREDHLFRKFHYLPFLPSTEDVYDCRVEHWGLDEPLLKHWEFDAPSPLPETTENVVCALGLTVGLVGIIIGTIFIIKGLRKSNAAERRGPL
T1 sequence (P01903 26-254 partner, other chains not shown): as the sequence (P01903 26-254, other chains not shown) above
T9 sequence (P01903 26-254 partner, other chains not shown): as the sequence (P01903 26-254, other chains not shown) above

With LGGVGLVLY the DR1 binding data [1] was 0.4900, the DR7 binding data [2] was 0.0007 and the “A*0301 (binding information)” value ([3]; binding value for HLA-A*0301, unit not given) was 0.0001. The “A*1101 binding information” value [4, 13] was 0.0002, the DR5w12 binding data [5] was 0.0004 and the DR2w2β2 binding data [6] was -0.005. For the same substance, the DR8w2 binding data [7] was -0.0002, the DR4w15 binding data [8] was -0.0009 and the DR5w11 binding data [9] was -0.0062. The DR4w4 binding data [10] was 0.0032.
LGVSENTIFLK was tested, and the “A*1101 binding information” value ([4]; Malaria A11 motif peptides, binding value for HLA-A*1101, unit not given) was 0.0063.
LNKEGKLIE was tested, and the DR1 binding information ([1]; Malaria DR3b motif peptides) was 0.0001, the DR7 binding information [2] was -0.0009 and the DR5w12 binding information ([5]; Malaria DR3b motif peptides) was -0.0003. For the same substance, the DR2w2β2 binding information [6] was -0.0021, the DR8w2 binding information [7] was -0.0007 and the DR4w15 binding information ([8]; Malaria DR3b motif peptides) was -0.0047. The DR5w11 binding information [9] was -0.0005, the DR3 binding information ([11]; Malaria DR3b motif peptides) was -0.0140 and the DR4w4 binding information ([10]; Malaria DR3b motif peptides) was -0.0017.
In the case of LSTNLPYGR, the DR1 binding data [1] is reported as 0.0012, the DR7 binding data [2] is reported as 0.0005 and the “A*0301 (binding information)” value [3, 14] is reported as 0.0004. The “A*301 (binding data)” value ([3]; Malaria A03 supermotif peptides, Table IX) was 0.0004, the “A*1101 binding information” value [4, 15] was 0.0100 and the DR4w4 binding data [10] was 0.0120.
In the case of LTDGIPDSI, the DR1 binding data [1] is reported as 0.0001, the DR7 binding data [2] is reported as -0.0003 and the DRw53 binding data [12] is reported as 0.0114. It also gave a DR5w12 binding data [5] of 0.0001, a DR2w2β2 binding data [6] of -0.0006 and a DR8w2 binding data [7] of -0.0003. The DR4w15 binding data [8] was -0.0014, the DR5w11 binding data [9] was -0.0004 and the DR4w4 binding data [10] was 0.1200.
For NSEDRETPPH, the “A*1101 binding information” value [4, 15] was 0.0002.
In the case of QCEEERCPPK, the “A*0301 (binding information)” value [3, 14] is reported as 0.0004 and the “A*1101 binding information” value [4, 15] is reported as 0.0002.
SLYDEHRKY was tested, and the “A*1101 binding information” value [4, 15] was 0.0045.
In the case of SVTCGKOTFt (SVTCGKGTR), the “A*1101 binding information” value [4, 15] is reported as 0.0009.
In the case of TCGKGIRSRK, the “A*1101 binding information” value [4, 15] is reported as 0.0002.
VDELSEDTK was tested, and the “A*1101 binding information” value [4, 15] was 0.0002.
VEVEKTASC was tested, and the DR1 binding information [1, 16] was 0.0001, the DR7 binding information [2] was 0.0073 and the DRw53 binding information ([12]; DR3a motif peptides, unit not given, exemplary 15-mer containing the core sequence) was 0.0022. For the same substance, the DR5w12 binding information [5, 16] was 0.0001, the DR2w2β2 binding information [6] was -0.0006 and the DR8w2 binding information [7] was 0.0006. The DR4w15 binding information [8, 16] was -0.0014, the DR5w11 binding information [9] was 0.0003 and the DR3 binding information [11, 16] was -0.0041. For the same substance, the DR4w4 binding information [10, 16] was 0.0030.
VLYNTEXGRH was tested, and the “A*1101 binding information” value [4, 13] was 0.0002.
VNDFQISKY showed a DR1 binding data [1] of 0.0001, a DR7 binding data [2] of -0.0003 and a DRw53 binding data [12] of -0.0005. For the same substance, the DR5w12 binding data [5] was 0.0001, the DR2w2β2 binding data [6] was -0.0005 and the DR8w2 binding data [7] was -0.0003. For the same substance, the DR4w15 binding data [8] was -0.0014, the DR5w11 binding data [9] was -0.0002 and the DR4w4 binding data [10] was -0.0007.
VWDEWSPCS was tested, and the DR1 binding information [1, 16] was 0.0001, the DR7 binding information [2] was -0.0003 and the DR5w12 binding information [5, 16] was 0.0001. It also gave a DR2w2β2 binding information [6] of -0.0005, a DR8w2 binding information [7] of -0.0003 and a DR4w15 binding information [8, 16] of -0.0009. The DR5w11 binding information [9] was -0.0002, the DR3 binding information [11, 16] was -0.0041 and the DR4w4 binding information [10, 16] was -0.0009.
Work on WDEWSPCSV yielded a DR1 binding data [1] of 0.0001, a DR7 binding data [2] of -0.0003 and a DRw53 binding data [12] of -0.0006. For the same substance, the DR5w12 binding data [5] was 0.0001, the DR2w2β2 binding data [6] was -0.0006 and the DR8w2 binding data [7] was -0.0003. For the same substance, the DR4w15 binding data [8] was -0.0014, the DR5w11 binding data [9] was -0.0002 and the DR4w4 binding data [10] was -0.0007.
WSPCSVTCGK was tested, and the “A*1101 binding information” value [4, 15] was 0.0002.
YGRLEIPAI gave a DR1 binding data [1] of 0.0004, a DR7 binding data [2] of -0.0003 and a DRw53 binding data [12] of -0.0005. It also gave a DR5w12 binding data [5] of 0.0002, a DR2w2β2 binding data [6] of -0.0005 and a DR8w2 binding data [7] of 0.0021. The DR4w15 binding data [8] was 0.0170, the DR5w11 binding data [9] was -0.0002 and the DR4w4 binding data [10] was -0.0007.
In the case of YLLMDCSGS, the DR1 binding data [1] is reported as 0.0015, the DR7 binding data [2] is reported as 0.0046 and the DRw53 binding data [12] is reported as -0.0010. The DR5w12 binding data [5] was 0.0001, the DR2w2β2 binding data [6] was 0.0096 and the DR8w2 binding data [7] was 0.0007. For the same substance, the DR4w15 binding data [8] was -0.0014, the DR5w11 binding data [9] was -0.0004 and the DR4w4 binding data [10] was 0.0150.

— US20160193316A1 (priority 1994, published 2016)
